Test results taken from the DeepSol protein solubility set.

Assay: soluble on expression in E. coli; label from the status in PepcDB or PDB records

GPLETDLVAVWDVALSDGVHKIEFEHGTTSGKRVVYVDGKEEIRKEWMFKLVGKETFYVGAAKTKATINIDAISGFAYEYTLEINGKSLKKYMEDRSKTTNTWVLHMDGENFRIVLEKDAMDVWCNGKKLETAGEFVDDGTETHFSIGNHDCYIKAVSSGKRKEGIIHTLIVDNREIPEIAS
soluble on expression in E. coli: soluble

MNHDIPALALGPQGEVMAHAIDACVHCGFCLPACPTYALLGDEMDSPRGRIVLMKEVLEGSLELEDAAPHLDRCLGCQGCVTACPSGVPYGELITSFRGWSEPQRERTPLDRAKRYAILKALPAPKLFSVAARVGQFAKPLAPALPAALKAPLDLLPEHVPAMQPQPRVTPARGQRRGRVAFLAGCAQQALTPNFNAATLRVLSRNGIEVVIPEGQGCCGAAALHTGARDEALRLVRANLAAFNPDEYDAILSNAAGCGAGLKEYPVVLHGLPDEAQAQAFAAKVQDISEYLAGLLRDGELAPLMPTREPVKVAYHDACHLAHAQGVRSAPRELLRAIPGVTLTEIPEGDLCCGSAGTYNLEQPELANQLGQRKAKNILGTQPDLIASGNIGCHTQIQSHVRRQGSPVPVMHTVEVLDLAYRGELLEHHHHHH
soluble on expression in E. coli: not soluble

MSLHSVKASANRFTKTSQGRSWNTGNGSPDAICFAVDKPGIVVVGFAVYGGGGIHEYELEVLVDDSEHAGDSTHSHRWTSLELVKGTYTTDDSPSDIAEIRLDKVVPLKENVKYAVRLRNYGSRTANGDGGMTTVQCPDGVTFTFSTCSLSSNGTNQTRGQIPQILYYRSEFDGDLQSQLLSKANEEDKNCSRALSVVSTVVRAAKDLLHRALAVDADEGHHHHHH
soluble on expression in E. coli: soluble

MGSDKIHHHHHHMIKVEIDEGSGFCFGVVTAIHKAEEELAKGETLYCLGDIVHNSREVERLKAMGLITINRDEFRQLRNAKVLLRAHGEPPETYQIAHKNNIEIIDATCPVVLRLQKRIKQEFRKEDFEEKQIVIYGKNGHAEVLGLVGQTGGQAIVIESAEEAKKLDFTKSIRLFSQTTKSLDEFQEIVEYIKLHISPDATFEYYDTICRQVANRMPNLREFAATHDLIFFVSGKKSSNGKMLFEECLKVNANSHLIDNEKEIDPTLLRNVKSIGVCGATSTPKWLMEKIHDHIQLLIKD
soluble on expression in E. coli: not soluble

MSLIYQIAKEFDFCYGHRVWSQELNPDFSLDPCLSCRHLHGHQGKVIVHLESRELQRGMVTDFAHLNWFKRFIDEVLDHRFIIDIDDPLFPTLLPHFADKSALVWMEEGYARVDFERIKGESSPILELYESFVVVRFVPTSESIASWLLELLRSRIQPLGVKVSSVEFLETPKSRARVYNEGHHHHHH
soluble on expression in E. coli: soluble

MHEVVTISVSQRANHLTTQFFNIQEGYLQLSKEQQVNDSKIFLNSVVDKVSKTISYAPRALLWDARTGNGSLGTYQYSESQDYHFGNEDKFKEQTVIKTHPRIPKSEYQSSLDAGAPLPCLNRENTMYWSDYSKLIYGPSSFNILRNWYHDTENPNQPDFQNLGERKFDRYSIGYDEFTENYLQEFFDGNLHRELEKCDTLQGFNLVSDMESGWGGFSSALLVELRNELPKKAVFSWGHNEDDPFTDDFPMKRLSKKWLPIISNKLRSTINMMQESDLYFPLYAAPGLTNWETAGKSCRIFDSINATISQSNLEQRKTMDYLTTAITLGYSSRNMVTGMVIGDTDYSFCSRVLPFKNSHKPNSTHIFSKSFIDRGNQTHKHHSEPDSRSKMIEMYTHRYFPSDTIPTEFSNDREFVLELESSEKNRDIFKHWNEFVVRYFKNDSDREELKNELSDYASAYESGWYEDEDSGDDDM
soluble on expression in E. coli: not soluble

MGSDKIHHHHHHVLNLGHKLLQYEAQKLISFHTPGHKGKAEFFTDLHFPDQDLTELPGLDMLHSPAGVIAQAQARAAAVYQSDASFYLINGATVGNQGMFMALAGTGKRGKDLQLPKVLVERQSHRSVFSALVLSGCEPEYIPSVVHPEFGLPLGLKSIAEVDLGEFLGVHLTYPGYYGTLPDLAMIAAQRDRQAVQVSILVDQAHGSHYLSPLFPKGALAYGADLVLCSTHKTLSALTQAAMLHVQGSRIPLSALKEALELLQSSSPSYLLMASLERAVEHALESRRWELLHEAVQELHHRVGGSLRILNPQDVGTYGIAGLDWTKIMINTQRLGVAAPRCVEHLRKSYGIDPELWDDKNILFLLGIGNTPEEVEILTKGLLSLASLNKDVVASPEEMVFEIPLPPVRLTPRQAYFARKRKIPLAESVGHIVGESISPYPPGIPWIVMGEEMTPEILELLTRHKGRWQGWEDAGQGVWIIEEV
soluble on expression in E. coli: not soluble

MFARNFFKGGTKVPHFKNTAECETVKMGVPEKVVIPMLQHVGAPCEPCVKKGDTVRVGQVIGNSDKYISSPIHSSVSGTVNDVAPMLFAGGIYVTAVEIKTDGKQEIYEGIKPPSFSNSKEFISAIRESGLVGLGGAGFPAHVKLSPPPDKKIDTLIINAAECEPYITSDYREIIENSWNVVSGINIIMEILGIENVLIGIEDNKPEAIKEMTRVAATDDRINVIKLKSRYPQGAEKMLIYATTGRKVPPGKLPADVGVIVMNVNSVSFISEYIKTGMPLIKKRVTVDGPSVKRPGNVEVLIGTPISEVFSFCGGFGIVPKKILMGGPMMGIAQYTLDTPVLKHTNALLAFDETTAVLPKEQACIRCGRCVRACPMNLLPLYLNNNSIRGNIEELNRYHVMDCIECGSCAYVCPAKINLVQSIRLGKAQVRQAAAKGGN
soluble on expression in E. coli: not soluble

AIFELMNEAYAPLYGFSALSQGQINQYIKMYLPIVDLRMVTLVTDAEDKLVAVGISMPSLSEALQKAKGRLLPMGWYHLLKVLFLHKYPPMLDLLLVAVKPEYQNKGVNALLFSDLIPVYQQLGFKYA
soluble on expression in E. coli: not soluble

MAHHHHHHMEDMYEMQHSNLRCLPENYNLRYYYYHLLSWPQLLYVQQDYNRNTVGYVLGKMDDEEVPDKKHGHITSLAVLRSHRKLGIASRVMRATMKEMDAEYGAHYCSLHVRKTNDAALHLYQDTLGFRCVGVEEKYYMDEEDAYHMKSFFHQANPGSYVDDHKRLIRKTVPGELEGGPAAAGASSPAVGGRGGDKNGKRGNDKAAKEISAKEREAAMAELLGLEVGGKGRAAGGGAGGKGKSGNSSGGGGKRGSGRQK
soluble on expression in E. coli: soluble

ADFEVHMLNKGKDGAFVFEPASLKVAPGDTVTFIPTDKGHNVETIKGMIPDGAEAFKSKINENYKVTFTAPGVYGVKCTPHYGMGMVGVVQVGDAPANLEAVKGAKNPKKAQERLDAALAALGN
soluble on expression in E. coli: soluble

MSLSQEMIKKWLDEEGFLRMEVPDENARFHYVVNYPEDHVIDIIQPAGKDDMILIACATSVSPEHQAGIRALSMEKRTEFIWKVRFTLNRFGVDFQLDHPENVLNSYLVTDEIFFDGLSKDRLISSIKNVFRAKLQVMWMIQERFGEERPEHDSMYVEGHHHHHH
soluble on expression in E. coli: soluble

MAVAYSIGIDSGSTATKGILLADGVITRRFLVPTPFRPATAITEAWETLREGLETTPFLTLTGYGRQLVDFADKQVTEISCHGLGARFLAPATRAVIDIGGQDSKVIQLDDDGNLCDFLMNDKCAAGTGRFLEVISRTLGTSVEQLDSITENVTPHAITSMCTVFAESEAISLRSAGVAPEAILAGVINAMARRSANFIARLSCEAPILFTGGVSHCQKFARMLESHLRMPVNTHPDAQFAGAIGAAVIGQRVRTRR
soluble on expression in E. coli: soluble

MAVSLVKGGNVSLTKEAPTMNIAVVGLGWDARVTDGSEFDLDASVFMVGENGKVLSDQHFIFFNNKVSPCGSVVHQGDNRTGAGDGDDEQIKIDLKKVPADVKKIIFSVTIYDAEARKQNFGMVSNSFMRVVNEDNSAEIARFDLSEDASTETAMIFGELYRNNDEWKFKAVGQGFAGGLSALASQHGVSV
soluble on expression in E. coli: not soluble

MNVSEALKGALPNFIPGLGTLYVDPSTLPEGPFLAYDRAGNLVKVVFMVPLKKLNESHKYVDIGTKTLRALGITRIDHVNLIPSGPHPGVSEPHYHIELVLVSVDQERKVLEGEPY
soluble on expression in E. coli: soluble

SKEGSVAPKERINIKYIPATGDAQAEVELPLKTLVVGDFKGHAEQTPLEERATVTVDKNNFEAVMRESELKITATVKNKLTDDENAELPVELNFKSLADFAPDAVASQVPELKKLIELREALVALKGPLGNIPAFRERLQSLLNSEESREKLLAELNLL
soluble on expression in E. coli: not soluble

MGARKASAGASRAATAGVRISHPQRLIDPSIQASKLELAEFHARYADLLLRDLRERPVSLVRGPDGIGGELFFQKHAARLKIPGIVQLDPALDPGHPPLLQIRSAEALVGAVQMGSIEFHTWNASLANLERPDRFVLDLDPDPALPWKRMLEATQLSLTLLDELGLRAFLKTSGGKGMHLLVPLERRHGWDEVKDFAQAISQHLARLMPERFSAVSGPRNRVGKIFVDYLRNSRGASTVAAYSVRAREGLPVSVPVFREELDSLQGANQWNLRSLPQRLDELAGDDPWADYAGTRQRISAAMRRQLGRG
soluble on expression in E. coli: soluble

MGSDKIHHHHHHMSTFHPSHPTHNRLLAALPPIELDDLAPHLELVHLLPGDVLCKPGETLPYAYFPTSSVISIHCMLENGASSELTSVGREGMLGVSLFMGGEATQNWVSVQSAGYGYRLNAAFLLQEFNEGGMLQRLLLRYSQALITEAVQNVVCSRYHTAQQRLCRWLLSMLDRLGPQDLILTQESIASILGVRRESVTAIARKLLEAGTICYRRGHIMVIDQIGLQKETCECYKKVKKEFDQVFDEVKTCEKVRQNSINAANAL
soluble on expression in E. coli: not soluble

MGSDKIHHHHHHMTEMNHSVPDDMLMGYASGSLAKAFDLVLATHVSLNDDARARLETFEALGGAILCGMDTVDVDDDSLEQTMAKIRGNAPIERPAPSEGLFPTPLQSMVGGDVDAVRWRSVGGGVKQCVLHSDDGGTVRLLSIAAGRAMPAHSHHGTEMTLVLQGAYRDDDGIFARGDLELADTDTNHQPVAEPGQDCICLVATNAKLKFQGLLPRIAQPFLGI
soluble on expression in E. coli: not soluble

MELEAGTVVEGRVVRVVSFGAFVELAGGEQGLVHISQIAHEYVTNVRDYLNEGDIVQVLIKGRDAKGRLDLSIKDLTPAPEGGAPPPRPRRLPKQSPEFENKLKSFLRGTGGFGGKGKKGGRKKR
soluble on expression in E. coli: soluble

MGSDKIHHHHHHMALKVLFTGADGYVGALLGPYLLEKGIEAVGLDTGFYRKGWLYPTSAPRPAVITKDIRQVTVADLEGFDAVAHLAELSNDPLGQQSPGLTHEINHGGSMHLAEMARKAGARRFVYMSSCSVYGVGQPEQILDETSPVNPQTAYAECKVKVEEDLTRRADSDFEPCFLRNATAYGASPRQRFDIVLNDLCGLAWTTNKITLQSDGSPWRPLVHALDMCQAVWRSLTAPADAIRGQAYNVGSNDQNYRVIEIARIVADSFPGCELEVGQPSADNRSYRVNFDKIQRVLPEFQCEWTAEKGARQMRQVFERIAMTPEEFRAEPYTRLKMLMRLRASKLLDDKLFWANPMVEAVA
soluble on expression in E. coli: not soluble

GPGSMTEYLKDIGRTKPGDPMPPINLGPYDNPLLWNMLDPFGADRGHQRRPMSVSRDFMELHNVPIIFRDQCVHRWVPFHRCLKNLKPVTWGTANCHEFEEAWMICRAYETYRNQLLKTKFMELTKDYTAEDKKFFPSLLHLSVPTYMNSFYWTMAASQRLSGWDERDPANPMTWREPNRALMRAEFSPTNWEQGNLTNATGHKLITDDLVFDMVPGFPLPEDKRPETLY
soluble on expression in E. coli: not soluble

MARTRSADYENIRDTIIERAAAMFARQGYSETSIGDIARACECSKSRLYHYFDSKEAVLRDMLTTHVDSLLERCRQVLYGSNEPKTRFLQIVKLFLEIYATSRDRHVVMLTCLDALPEDQRKALIAKQRELIAYVRDALLQLRPDMAANRTLAHVDTMLFFGMINWTYTWYKADGSVSPDALAERTVQLFLDGYLNLLSA
soluble on expression in E. coli: soluble
